This data set can be described thus: yeast display, Sf9 membrane polyspecificity reagent, FACS + sequencing; frameworks hold sequencing errors. Summed up:
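In a synthetic yeast display library (Saccharomyces cerevisiae BJ5465), nanobody expression was induced with galactose for 36–48 hours. FACS gates were set low and high (top ~1%) using anti-HA fluorescence for expression and streptavidin fluorescence for binding of the Sf9 membrane reagent. Each polyreactivity label is drawn from the gate of origin.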
Regarding “QVQLVESGGGLVQAGGSLRLSCAASGSIFRYYAMGWYRQAPGKERELVAGITGSTGRTYYADSVKGRFTISRDKAKNTVYLELNSLKPVDTEVYYCSARSRYYEYDYWGQGTQVTVTS”, the “polyreactivity (PSR sort gate)” value is listed as “low polyreactivity”.
Consider “QVQLVESGGGLVQAGGSLRLSCAASGSLFERYAMGWNRQAPGKEREFVATITSGGGRTYYADSVKGRFTISRDNAKNTVYLQMNSLKPEDTAVYYCNAVYRARSYDYWGQGTQVTVSS”, for which the “polyreactivity (PSR sort gate)” value is given as “high polyreactivity”.
As to “QVQLGESGGGLVQAGGSLRLICAASGSIFDQYAMGWSRPAPGKERELVAAIDTSGGSTYYADSVKGRFTISRDNAKYTVYLQMNSLKPEDTAVYYCAARGDGTFYEGYDYWGQGTQVTVSS”, the “polyreactivity (PSR sort gate)” value was “low polyreactivity”.
The same measure for “QVQLVESGGGLVQAGGSLRLSCAASGRIFTYYAMGWYSQAPGKERELVAAISRSGGRTYYADSVKGRFTISRDNAKNTVYLQMNSLTPEDTAVYYCAADRLSLRAYDYWGQGTQVTVSS”: “high polyreactivity”.
Then “QVQLVESGGGLVQAGGSLRLSCAASGFIFDSYAMGWYRQAPGKERELVAAITTSGGRSYYADSVKGRFTISRDNAKNTVYLQMNSLKPEDTAVYYCAAKYTARWGFDYWGQGTQVTVSS”, with “high polyreactivity”.
Then “QVQLVESGGRIVQAGGSLRLRCAASGSTFHRYAMGRYRQAPGKERELVAAISRSGGSTYYADSVKGRFTISRDTAKNTVYLLMNSLKPVDTAVYYCAADRTGHGFGYWGQGTQVTVSS”, with “high polyreactivity”; and “QDQLVESGGALVQPGGSLRLSCAASGRLLGRYAMGWYRQAPGKDRELVATITSGDDTNYADSVKGRFTISRDNAKNTVYLQMNSLKPEDTAVGYWGQGTQVTVSS”, with “low polyreactivity”; and “QVQLVESGGGLVQAGGSLRLSCAASGSTFPTNAMGWYRQAPGKERELVADINGNGGRTYYADSVKGRFTISRDNAKNTVYLQMNSLKPEDTAVYYCAVEPDVYPSWYYYVDYDYWGQGTQVTVSS”, with “low polyreactivity”.
Consider “QVQLVESGGGLVQAGGSLRLSCAASGITFFPYAMGWYRQAPGKERELVASISDGGGTNYADSVKGRFTISRDNAKNTVYFQMNSLKPEDTAVYYCATDASTYAYYGGDYWGQGTQVTVSS”, for which the “polyreactivity (PSR sort gate)” value is “low polyreactivity”.
Then “QVQLVESGGGLVQAGGSLRLSCAASGSIFPAYDMGWYRQAPGKERELVAAIDRGGSTYYADSVKGRFTISRDNAKNTVYLQMNSLKPEDTAVYYCATDGQEYPNYISSAGFDYWGQGTQVTVSS”, with “low polyreactivity”.
The same measure for “QVKLVESGGGLVQAGGSLRLTCAASGSNFDINAMGWYRQAPGKERELVAAISWSGGDTYADSVKGRFTISRDNAKITVYLQMNCLKPEDTAVYYCDTGDPHEEQYYYDYCGQGTQVTVSS”: “low polyreactivity”; for “QVQLEESGGGLVQAGGSLRLSCAASGSIFSRNAMGLYRQAPGTERELVAVITRSGSTNYADSVKGRFTISRDNAKNTVYLQKKSLTPQDTAVYYCNADQDAYYLVSIATYDYWGQGTQVTVSS”: “low polyreactivity”.
The same measure for “QVQLVESGGGLVQAGGSLRLSCAASGFIFPYNAMGWYRQAPGKDRELVAAISWSGSNTYYADSVNGRFTISRDNAMNTVYLQMNSLKPEDTAVYYCAARHSVYYFVQRNGRYGYWGQGTQVTVSW”: “high polyreactivity”; for “QVQLVESGGGLVQAGGSLRLSCAASGSIFPSNAMGWYRQAPGKERELVAAINRDGISNYADSVKGRFTISRDNAKNTVYLQMNSLKPEDTAVYYCAAEFAWQWWEYGYWGQGTQVTVSS”: “low polyreactivity”; for “QVQLVESGGGLVQAGGSLSLSSAASGPIFAYNAMGWYRQAPGKERELVAAISYSGGSTYYADSLKGRFTISRDNAKNTVYIQMNSLKPEDTAVYYCNAVYRYLTYRYDYWGQGTQVTVSS”: “high polyreactivity”.
With “QVQLVQSGGGLVQAGGSLRLSCAASGSIFGYYAMGWYRQAPGKERELVAVITSVATTNYADSVKGRFTISRDNAKNTVYLQMNSLKPEDTAVYYCAARPQVKRGRYGYWGQGTQVTVSS”, the “polyreactivity (PSR sort gate)” value is recorded as “low polyreactivity”.
Then “QVQLVESGGGLVQAGGSLRLSCAASGRIFAYNAMGWYRPAPGKERELVADISSGGNTYYADSVKGRFTISRDNAKNTVYLQMNSLKPEDTAVYYCAADIAWYTHYHRIFDYWGQGTQVTVSS”, with “low polyreactivity”; and “QVQLVESAGGLVQAGGRLRLSCAASGFTFKKYAMGWYRQAPGKERELVASITWSGGSTSYADSVKGRFTISRDNAKNTVYLQMTSLKPEDTAVYYCAAATFVYRLRYNRFDYGGQGTQVTVSS”, with “high polyreactivity”; and “QVQLVESGGGLVQAGGSLRLSCAASGIIFQSYTMGWYRQAPGKERELVAAIDSGGSTYYADSVKGRFTISRDNAKNTVYVQMNSLKPEDSAVYYCATDYPLYWSTLYDYDYWGQGTQVTVSS”, with “low polyreactivity”.
The same measure for “QVQLVESGGGLVQAGGSLRLSCAASGSIFVGNAMGWYRQAPGKERELVATISWSGGSTYYADSVKGRFTISRDNAKNTVYLQMNSLKPEDTAVYYCAKTPYRRYRYGGYTYRTYDYWGQGTQVTVSS”: “low polyreactivity”.
Regarding “QVQLVESGGGLVQAGGSLRLSCAASGSTFPLYTRGWYRQAPGKERELVAAISGGSTTYYADSVKGRFTISRDNAKNTVYLQMNSLKPEDTAVYYCAAYAYTSRWYGFDYWGQGTQVTVSS”, the “polyreactivity (PSR sort gate)” value is “low polyreactivity”.
For the sequence “QVQLVESGGGLVQAGGSLRLSCAASGRTFGRYAMGWYRQAPGKERELVARIRTSGGRTYYADSVKGRFTISRDNAKYTVYLQMNSLKPEDTAVYYCATTSQPWYYWSTQGDDYWGQGTQVTVSS”, the “polyreactivity (PSR sort gate)” value is “low polyreactivity”.
The same measure for “QVQLVESGVGLVQAGGSLRLSCAASGLIFASNSMGSYRQAPGKEREFVAAITSSGGSTYYADSVKGRFPISRDNAKNTVYLQMNSLKPEDTAVYYCAADLYGAWWYTYGRYYYWGQGTQVTVSS”: “low polyreactivity”; for “QVQLRESGAGGRQPAPEMRGERQYFYWSADGLVSQGPGKEREFDAGIDRGTITNYADSVRGRFTISRDNAKNTVYLQMNSLKPEDTAVYYCAVPAYGDPRSYYWGQGTHVTVSS”: “high polyreactivity”.
Then “QVQLVESGGGLVQAGGRLRLSCAASGSTSQSNAMGWYRQAPGKERELVAAISWSGTSTYYADSVKGRFTISRDNAKNTVYLQMNSLKPEDTAVYYCAADYIFDYDYWGQGTQVTVSS”, with “low polyreactivity”; and “QVQLVESGGGLVQAGGSLRLSCAASGRTFDVYAMGWYRQAPGKERELVAAISKRGGSTYYADSVKGRFTISRDNAKNTVYLQMNSLKPEDTAVYYCNAYQTGWKGYDYWGQGTQVTVSS”, with “high polyreactivity”.
Then “QDQLVDSGGGLVQAGGSLRLSCAASGRIFGYNSMGWYRQAPGKERELVASISSDGRTYYADSVKGRFTISRDNAKNTVYLQMNSLKPEDTAVYYCAAKEWYFTTWYTYYERDYWGQGTQVTLSS”, with “high polyreactivity”; and “QVQLQESGGGLVQAGGSLRLSCAASGTITVLYKMGWFRQAPGKEREFVASINYGTSTYYADSVKGRFTVSRDSAKNTVYLQMNSLKPEDTAVYFCSAAFRWQDVYRYWGQGTQVTVSS”, with “low polyreactivity”.
For the sequence “QVQLVESGGGLVQAGGSLRLSCAASGSTFDPNAMGWYRQAPAKERELVAAISYTGGRTYYADSVKGRFTISRDNAKNTVYLQMNSLKPEDTAVYYCAVLVVGSTTQDEPYFSGVEHDYWGQGTQVTVSS”, the “polyreactivity (PSR sort gate)” value is on record as “low polyreactivity”.
Then “QVQLVESGGGLVQAGGSLRLSCAASGSTFGVYAMGWYRQAPGKERELVAAISKRGGSTYYADSVKGRFTISRDNAKNTVYLQMNSLKPEDTAVYYCAAGARGLYDYWGQGTQVTVSS”, with “high polyreactivity”.
Then “QVQLVESGGGLVQAGGSLRLSCAASGYTLYQYAMGWYRPAPVKERELVAAISRRGGSTYYADSVKGRFTISRDNAKNTVYLLMNSLKPEDTAVYYCNNANLYRFWEMDYWGQGTQVSVSS”, with “high polyreactivity”.
The same measure for “QVQLVESGGGLVQAGGSLRLSCAASGITYCANTMGWYRQAPGKERELVADITVTGDGTYYADSVKGRFTISRDNAKNTVYLQMNSLKPEDTAVYYCAADFWLVSFQWDFEYDYWGQGTQVTVSS”: “low polyreactivity”; for “QVQLVESGGGLVQAGGSLRLSCAASGGIFVANAMGWYRQAPGKERELVAAISRSGGSTYYADSVKGRFTISRDNAKNTVYLQMKSLKPEDTAVYYCAAKSRRQFTVGLTSDYRGQGTQVTVSS”: “high polyreactivity”; for “QVQLVESGGGLVQAGGSLRLSCADSGFIFTAYAMGWYRQAPGKERELVAAISRSGGRTYYADSVKGRFTISRDNAKNTVYLQMNSLKPEDTAVYYCNADFHSGGGYWGQGTQVTLSS”: “high polyreactivity”.
On to “QVQLVESGGRLVQAGGSLRLSCAASGRIFRRYAMGWYRQAPGKERELVATINSGGTTNYADSVKGRFTISRDNAKNTVYLQMNSLKPEDTAVYYCNARSARYSGFDYWGQGTQVTVSS”, for which the “polyreactivity (PSR sort gate)” value was “high polyreactivity”.
The same measure for “QVQLVESGGGLVQAGGSLRLSCAASGSTFGPNAMGWYRQAPGKERELVATISFRGGTTYYADSVKGRFTISRDHAKNTVYLQMNSLKPEDTAVYYCAVKVGYVRLLYHYYYWGQGTQGTVSS”: “high polyreactivity”; for “QVQLVESGGGLVQAGGSLRLSCAASGITFAYNTMGWYRQAPGKERELVAGISVSGASTYYADSVKGRFTISRDNAKNSVYLQMNSLKPEDTAVYYCAAPRWVANQYREYDYWGQGTQVTVSS”: “high polyreactivity”.
The same measure for “HVQLVESGGGLVQAGGSLRLSCAASGRIFSVYAMGWYRQAPGKEWEFVAAITTNGGSTYYADSVKGRFTISRDNAKNTVYLQMNSLKPEDTAVYYCAAYRSRVNGYRVDYWGQGTQVTVSS”: “high polyreactivity”.
“QEQLQESGGGLVQAGGSLRLSCAASGYISQSSVMGWYRQAPGKEREFVASISYGATTYYADSVKGRFTISRDNAKNTVYLQTNSRKPEDTAVYYCAVWVKRGFSHRYWGQGTQVTVSS”: the “polyreactivity (PSR sort gate)” value is listed as “high polyreactivity”.
The same measure for “QVQLVESVGGLVQAGGRLRLSCAASGSIFSIYGMGWYRQAPGKERELVAVISKSGTRTFYADSVKGRFTISRDNAKNTVYLQMNSLKPEDTAVYYCNARIFFRRNVTQVRMDYWGQGTQVTVSS”: “high polyreactivity”.
For “QVQLVESGGGLVQAGGSLRLSCAASGRNFKNYDMVWYRQAPGKERELVADISWRSGSTNYSDSVKGRFTISRDNAKNNVYLQMNSLKPEDTAVYYCASKRRISGWSQFTSYADFDYWGQGTQVTVSS”, the “polyreactivity (PSR sort gate)” value is listed as “low polyreactivity”.

The values are drawn from the nanobody polyreactivity screen of Harvey et al. (2022).
